In patent US20230147852A1 (SORRENTO THERAPEUTICS, published 2023):

T1: Mouse LAG3 (mouse, UniProt Q61790)
T1 construct: recombinant, His-tagged, coated on a Ni-NTA plate; also called mouse LAG3-His Tag recombinant protein
T1 sequence (antigen, looked up): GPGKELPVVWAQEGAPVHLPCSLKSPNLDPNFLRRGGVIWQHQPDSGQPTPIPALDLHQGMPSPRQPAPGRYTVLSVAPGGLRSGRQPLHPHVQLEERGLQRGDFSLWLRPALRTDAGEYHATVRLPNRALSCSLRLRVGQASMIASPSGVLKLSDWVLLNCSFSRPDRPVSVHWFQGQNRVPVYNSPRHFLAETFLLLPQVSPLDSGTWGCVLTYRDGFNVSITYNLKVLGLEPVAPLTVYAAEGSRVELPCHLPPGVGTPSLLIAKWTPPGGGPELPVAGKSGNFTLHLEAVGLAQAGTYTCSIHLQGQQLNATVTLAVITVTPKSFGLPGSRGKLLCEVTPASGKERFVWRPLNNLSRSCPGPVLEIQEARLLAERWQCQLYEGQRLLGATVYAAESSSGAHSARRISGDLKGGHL

T2: Recombinant human LAG3-His (Sino Biological; catalogue No. 16498-H08H) (human, UniProt P18627 23-450)
T2 construct: also called human LAG3 His-tag protein; CD223
T2 sequence: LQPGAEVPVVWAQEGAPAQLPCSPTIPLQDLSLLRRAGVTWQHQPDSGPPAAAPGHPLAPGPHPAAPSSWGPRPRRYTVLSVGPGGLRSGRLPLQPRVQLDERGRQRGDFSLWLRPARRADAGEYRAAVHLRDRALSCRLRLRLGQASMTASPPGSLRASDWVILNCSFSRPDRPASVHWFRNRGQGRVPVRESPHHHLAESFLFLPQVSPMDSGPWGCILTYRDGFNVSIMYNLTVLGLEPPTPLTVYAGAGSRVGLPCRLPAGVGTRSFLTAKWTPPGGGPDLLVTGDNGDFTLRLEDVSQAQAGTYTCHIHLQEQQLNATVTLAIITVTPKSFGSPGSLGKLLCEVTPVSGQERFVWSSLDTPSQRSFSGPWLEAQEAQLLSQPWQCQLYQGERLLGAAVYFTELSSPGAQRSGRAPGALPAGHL

T3: recombinant human LAG3-Fc Tag protein (Sino Biological; catalogue no. 16498-H05H) (human, UniProt P18627)
T3 construct: recombinant, soluble
T3 sequence (fusion chain, looked up): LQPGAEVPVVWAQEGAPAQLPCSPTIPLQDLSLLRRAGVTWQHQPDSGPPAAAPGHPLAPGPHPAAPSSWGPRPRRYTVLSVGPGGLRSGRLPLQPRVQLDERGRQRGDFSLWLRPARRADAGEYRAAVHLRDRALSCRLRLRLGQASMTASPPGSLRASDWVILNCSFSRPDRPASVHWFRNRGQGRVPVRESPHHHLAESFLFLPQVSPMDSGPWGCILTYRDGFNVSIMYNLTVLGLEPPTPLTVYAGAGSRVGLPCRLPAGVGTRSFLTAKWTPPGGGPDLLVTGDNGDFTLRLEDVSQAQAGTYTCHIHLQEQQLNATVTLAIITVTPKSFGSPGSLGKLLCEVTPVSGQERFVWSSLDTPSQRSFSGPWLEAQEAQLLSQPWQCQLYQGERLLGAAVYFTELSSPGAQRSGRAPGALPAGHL

T4: human LAG3 on LAG3/NFAT-Luc reporter Jurkat cells (human, UniProt P18627)
T4 construct: on the surface of transfected Jurkat cells; also called human LAG3 expressed on Jurkat cells (BPS Biosciences; catalogue No. 71278)
T4 sequence (antigen, looked up): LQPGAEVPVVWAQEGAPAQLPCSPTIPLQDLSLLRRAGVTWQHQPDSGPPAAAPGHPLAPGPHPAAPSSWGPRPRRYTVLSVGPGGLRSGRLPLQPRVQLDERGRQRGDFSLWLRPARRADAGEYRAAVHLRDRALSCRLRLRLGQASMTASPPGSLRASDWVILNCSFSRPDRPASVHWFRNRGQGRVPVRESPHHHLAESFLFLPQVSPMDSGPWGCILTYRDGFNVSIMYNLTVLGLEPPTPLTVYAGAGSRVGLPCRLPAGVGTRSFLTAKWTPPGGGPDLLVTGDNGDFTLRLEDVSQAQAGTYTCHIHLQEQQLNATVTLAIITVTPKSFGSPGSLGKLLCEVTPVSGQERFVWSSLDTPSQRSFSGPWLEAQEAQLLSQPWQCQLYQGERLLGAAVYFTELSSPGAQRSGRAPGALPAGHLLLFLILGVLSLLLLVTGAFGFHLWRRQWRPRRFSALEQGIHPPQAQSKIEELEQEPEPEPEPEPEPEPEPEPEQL


Legend:
Mouse LAG3 [1] = molecular target: T1, Mouse LAG3; assay: ELISA: LAG3-His coated at 2 µg/mL on a Ni-NTA plate, antibody (IgG4) at 2 µg/mL, anti-human Fc-HRP, OD at 450nm
[2] = molecular target: T2, Recombinant human LAG3-His (Sino …); assay: ELISA: antibody coated at 5 µg/mL, soluble human LAG3-His titrated (x-axis: Human LAG3, µg/ml), OD at 450nm
[3] = molecular target: T3, recombinant human LAG3-Fc Tag protein …; assay: ELISA: antibody coated at 5 µg/mL captures human LAG3-Fc at 2 µg/mL; how the black bars (LAG3 binding) were detected is not told
[4] = molecular target: T2, Recombinant human LAG3-His (Sino …); assay: SPR (Biacore): antibody captured on anti-human Fc, human LAG3-His in solution
[5] = molecular target: T4, human LAG3 on LAG3/NFAT-Luc reporter …; assay: Flow cytometry on human LAG3/NFAT-Luc Jurkat cells, ΔMFI = LAG3 Jurkat minus wild-type Jurkat, AF647 anti-human IgG
Mouse LAG3 [6] = molecular target: T1, Mouse LAG3; assay: […], antibody ([…]) at 2 µg/mL, […]
[7] = molecular target: T2, Recombinant human LAG3-His (Sino …); assay: SPR (Biacore), antibody captured by anti-human Fc, human LAG3-His as analyte, 1:1 model

Row | Binder | binding result (Mouse LAG3 [1]) | EC50 (read off the curve) [2] [µg/mL] | binding result [3] | binding result [4] | binding result [5] | binding result (Mouse LAG3 [6]) | Kd [7] [pM]
1 | 5C8 (antibody, V domains shown, also called anti-LAG3 antibody 5C8) VH: QVQLVQSGAEVKKPGASVKVSCKASGYTFTSYGISWVRQAPGQGLEWMGWISAYNGNTNYAQKLQGRVTMTTDTSTSTAYMELRSLRSEDTAVYYCARDSGYDFEDWFDPWGQGTLVTVSS VL: not shown | no binding (tested: 2 µg/mL) | ~0.02 | – | – | – | – | –
2 | 8D9 (antibody, V domains shown, also called anti-LAG3 antibody 8D9; Clone 8D9) VH: QVQLVQSGAEVRKPGSSVKVSCKASGGTFSNYAFSWVRQAPGLGLEWLGAIIPEFDTANYAQKFKDRVTITADDSTTTVYMELSSLRSEDTAVYYCASGMWDYYGSGSSIDYWGQGTLVTVSS VL: QSVLTQPPSASGTPGQRVTISCSGSNSDIGRNPVNWYHQFPGTAPKLLIFSNSHRPSGVPDRFSGSKSGTSASLAIGGLQSDDEADYYCAAWSDSLNGYVFGTGTKLTVL | – | – | binds | binds | binds | no binding (tested: 2 µg/mL) | –
3 | 1C5-3A6 (antibody, V domains shown, also called anti-LAG3 antibody 1C5-3A6) VH: QVQLVQSGAEVKKPGASVKVSCKASGYTLTDYYIHWVRQAPGQGLEWVGWINPNSGGTNYEQKFQGRVTMTWDTSISTAYMELSRLTSDDTAVYYCAREGWSNDWYVGYYFDYWGQGTLVTVSS VL: DIQMTQSPLSLSASVGDRVSITCRASQYIGTSLNWYEQKPGNSPKLLITGASRLQSGVPSRFSGSGSGTDFTLTINTLQPDDLATYYCHQSYDDPPTFGQGTKLEIK | – | ~0.07 | – | – | – | binds | 64.3
